Article PMC11840927, “Frataxin Traps Low Abundance Quaternary Structure to Stimulate Human Fe–S Cluster Biosynthesis” (Biochemistry, 2025)

Molecular target: T1, NFS1(Δ1–55)-ISD11(S11A)-ACPec complex with N-terminal His6 tag on NFS1 (human | Escherichia coli, UniProt Q9Y697 56-457; Q9HD34 1-91; P0A6A8 1-78, S11A, covalently attached PLP | acyl-4′PPT (assumed mass 523 Da))
T1 construct: NFS1, human cysteine desulfurase, Δ1–55 (residues 56 to the C-terminus); ISD11 (LYRM superfamily), human, S11A; Escherichia coli acyl-carrier protein (ACPec) associated with NFS1-ISD11; Used uniformly 14N or 15N labelled in the exchange experiments; Calculated masses excluded the N-terminal methionine if present; also called SDAec; His-tagged SDAec; not shown: His6, N-terminal, kept; copies: 2 + …
Assay: native MS; complexes formed before the exchange reaction: SDAec with ISCU2 (1:3) or ISCU2 and FXN (1:3:3), IscS with IscU (1:3), 30 min, room temperature, EMR Orbitrap
Conditions: both partners purified

Binder	binding result
FXN (Δ1–81) (natural protein, human, UniProt Q16595 82-210, looked up, frataxin (FXN), human, Δ1–81 (residues 82 to the C-terminus); also called frataxin) GTLGHPGSLDETTYERLAEETLDSLAEFFEDLADKPYTFEDYDVSFGSGVLTVKLGGDLGTYVINKQTPNKQIWLSSPSSGPKRYDWTGKNWVYSHDGVSLHELLAAELTKALKTKLDLSSLAYSGKDA	binds
ISCU2 (Δ1–35) (natural protein, human, UniProt Q9H1K1-1 36-167, looked up, ISCU2, human Fe–S cluster scaffold protein, Δ1–35 (residues 36 to the C-terminus); Two constructs were made, ISCU2-TEV-GST and ISCU2-TEV-GST-His6; Residues of the TEV site may remain at the C-terminus after cleavage (surmised); also called scaffold protein; source: E. coli BL21(DE3), purified (GST column, TEV digestion, Ni-NTA, cation exchange, Sephacryl S100); not shown: GST, C-terminal, cleaved) HKKVVDHYENPRNVGSLDKTSKNVGTGLVGAPACGDVMKLQIQVDEKGKIVDARFKTFGCGSAIASSSLATEWVKGKTVEEALTIKNTDIAKELCLPPVKLHCSMLAEDAIKAALADYKLKQEPKKGEAEKK	binds
